From the supplement of paper PMC10724198
± gives the standard deviation of the averaged measurements.

These sequences were tested on Saccharomyces cerevisiae (assay: protein stability index of tFT-peptide fusion (C-terminal peptide) (PSI (0-1 scale)); higher = more stable (slower turnover)). Settings: genetic background: wild type; temperature: 30 C.
Experimental: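 Multiplexed protein stability (MPS) profiling in S. cerevisiae. Random 12-aa peptides (tFT-X12 library) are fused to the C-terminus of a sfGFP-mCherry tandem fluorescent timer, after mCherry and a GGGS linker. Cells are FACS-sorted into 8 mCherry/sfGFP bins and deep-sequenced. The protein stability index (PSI) is the read-weighted bin average, scaled from 0 (unstable) to 1 (stable). Only peptides with >10 reads are reported; cells were grown at 30 °C in SC-His with glucose.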
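Also: PSI is a weighted mean of sequencing reads over stability bins, variants kept only with over 10 reads, mCherry proximal and sfGFP distal, peptide attached via GGGS linker.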

In order of falling protein stability index:
1. FYSPSAPSPFFL  0.797 ± 0.052
2. FTPDFTPKGSLS  0.791 ± 0.088
3. FVASEFEVRLWR  0.769 ± 0.01
4. GCRGGLREAGVW  0.768 ± 0.024
5. GEPSYLEYSNLV  0.765 ± 0.042
6. FVGDPRRLSLPI  0.761 ± 0.14
7. FVFGECRGWALV  0.76 ± 0.046
8. FSVFFSPQRGCM  0.759 ± 0.1
9. GADSWFGVVDVC  0.75 ± 0.1
10. GAPPLAPTPPPP  0.745 ± 0.024
11. GETGGRSQDARI  0.744 ± 0.088
12. GAVRGDRLTHTG  0.734 ± 0.028
13. GCWGGLGAPGVS  0.734 ± 0.028
14. GFFNNRLASSLR  0.734 ± 0.098
15. GEEGQRGRGWRS  0.733 ± 0.039
16. FYPHFCAHTRPH  0.7265 ± 0.0054
17. FSSSPGRSFRTV  0.726 ± 0.0091
18. GAPRESSEGRAQ  0.725 ± 0.095
19. GAVRGGSGDWGR  0.723 ± 0.0083
20. GEAFLVRRSRNR  0.722 ± 0.082
21. GFNRRVWRGLGV  0.721 ± 0.053
22. GALYGARCNFEL  0.72017 ± 0.00015
23. GFSLGAPRPFVQ  0.718 ± 0.039
24. GASPLPSPADHL  0.717 ± 0.14
25. GEQEKRFFLSPL  0.717 ± 0.021
26. GAGVEIGKSRYR  0.716 ± 0.074
27. GCASTNTPSTTP  0.714 ± 0.022
28. GERWGGGRAAET  0.714 ± 0.076
29. GFSSVPFFPLSR  0.7142 ± 0.003
30. GAPPRPKTGRTF  0.7118 ± 0.00075
31. GEVAQDLGRDIL  0.7124 ± 0.0019
32. GEYYAPVVGRRF  0.7121 ± 0.0031
33. GEAVTGQRGATS  0.71 ± 0.025
34. GEILTLYLLPRL  0.705 ± 0.052
35. GAPVGRRPGRDR  0.703 ± 0.035
36. FVWSGVGCWSEA  0.701 ± 0.0076
37. GAWFSWLGEVVG  0.701 ± 0.075
38. GAEKEPEPRRLA  0.699 ± 0.06
39. GDTRILKSRPEI  0.699 ± 0.0098
40. GAGRLGGDRVVG  0.698 ± 0.037
41. GAGGVWGGGQAG  0.696 ± 0.041
42. GFRLCVFGSSLF  0.6956 ± 0.0025
43. FWGPVWNVSWGV  0.695 ± 0.019
44. GENTRKNNVVGE  0.69 ± 0.017
45. GFLSSLRLLPPF  0.688 ± 0.029
46. GAGLGGGRGRRW  0.68617 ± 0.00065
47. GCLVGRGQRGTE  0.686 ± 0.026
48. FSSPLSSPSPLY  0.6834 ± 0.0059
49. GFCWFRGVGSGG  0.683 ± 0.044
50. FWAWEGCTRALM  0.681 ± 0.07
51. GEGNAIGQVVRN  0.681 ± 0.021
52. GAKCLFVSGGGI  0.6804 ± 0.0047
53. FVGWGLGVGTHD  0.679 ± 0.0054
54. GAMLAGRQGWGL  0.679 ± 0.018
55. GEYLWVHRIISE  0.679 ± 0.086
56. FWSRGANGGVLV  0.6775 ± 0.0037
57. GARVRIRVNDKK  0.677 ± 0.021
58. GENVVPGLHTQV  0.675 ± 0.064
59. GDRAKTKQRESN  0.671 ± 0.01
60. GCRLVSDCRVFV  0.67 ± 0.031
61. GATGGACGVWAG  0.668 ± 0.048
62. FSSFCFFLPPLN  0.666 ± 0.034
63. GCLCAGSMVGDL  0.666 ± 0.015
64. FVFSMDAFRSGL  0.665 ± 0.045
65. GARSARVWARAK  0.664 ± 0.022
66. GEDGCGWSEAGG  0.664 ± 0.017
67. GCGCVVRVWSGV  0.6621 ± 0.0013
68. FVGPAWLGVRSC  0.659 ± 0.012
69. GCQVAVGRAGGV  0.659 ± 0.023
70. GAEHGVRTTAVT  0.658 ± 0.014
71. GEEGAWSRQGPP  0.658 ± 0.035
72. FTPSSPPLPLLP  0.655 ± 0.11
73. GDTKKRTQGRGV  0.653 ± 0.011
74. GELADVVWLGGE  0.652 ± 0.057
75. GFCLGSLPQRLD  0.65 ± 0.019
76. GCGDSLGGERRE  0.643 ± 0.1
77. GCTNSCGRHVKG  0.6426 ± 0.006
78. GAREHGSNDYGP  0.635 ± 0.036
79. FVKQSHYCLFHL  0.634 ± 0.011
80. FTERVVEKFVLY  0.633 ± 0.01
81. GFLSSSKSCRCH  0.632 ± 0.059
82. GCSLTFAGLFCI  0.629 ± 0.01
83. FSSFVVVGCWPR  0.625 ± 0.027
84. GCLLVVGGVWGS  0.625 ± 0.036
85. FVLISSPLLRSF  0.623 ± 0.017
86. GFGLACGRCMGS  0.623 ± 0.098
87. FVCLRWAVGLGG  0.6204 ± 0.0013
88. FVGVGLVRVVGW  0.618 ± 0.018
89. GDNRSVSRKAEW  0.614 ± 0.047
90. GCENSRRSWRPD  0.609 ± 0.028
91. GFFRRNLGRVMD  0.608 ± 0.074
92. GDFFVSFRCLLL  0.606 ± 0.027
93. GFLGLLASFFVL  0.604 ± 0.022
94. FVSRLWKIPTES  0.583 ± 0.034
95. FVLPLAPAGIAS  0.5817 ± 0.0038
96. FVVVLSPLVILQ  0.5344 ± 0.0049
97. GCFTLLCFRRIL  0.511 ± 0.012
98. FWGCFVWFCVCG  0.509 ± 0.023
